Experimental data as given in the supplement of paper PMC12636428.

Tested on: Saccharomyces cerevisiae
Assay: transcriptional activation domain activity (GFP:mCherry ratio, weighted mean of sorted bins, harmonized to initial dataset scale) (arbitrary fluorescence ratio units); higher = stronger transcriptional activation
Conditions: beta-estradiol 1 µM; induction time 4 h
Summary of the method: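 Protein tiles carrying barcodes and fused to an estradiol-inducible synthetic transcription factor were placed at the URA3 locus of yeast diploids with a GFP reporter. Following 4 hours at 30 °C in SC with 1 uM beta-estradiol, cells were sorted into 8 GFP:mCherry bins, barcodes were sequenced, and tiles with fewer than 50 reads were discarded. Activation activity is given as the read-weighted mean of bin median fluorescence, averaged across barcodes and linearly mapped to the initial dataset scale.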

| Sequence | transcriptional activation domain activity |
| --- | --- |
| IVLGFLPIKSWQQHCFYIIMSFGSFVSTAFYSRFVELWGLLWPLWYLTILICV | 42600 |
| PSPFPPSLSPPLFPPFPPLPLCPPFLPLFPPSPLSPPFLPLFPPLFLPLSFPP | 50200 |
| NDFEKLEFFNKYAKVNTNNDVNENNDLWNSYLQSMDDTTGKNSGNYQQVDNDD | 35700 |
| QLYSNNFQQSYPNGMVPGYYPKMPYNPMGGDPLLDQAFYGADDFFFPPEGCDN | 77800 |
| CGQILLTICLLPLLFFFFFFFFWSKGVSPFLSHLSSVLLIMLGRIMQIVVGLW | 38300 |
| TPSSLLHLFPRVQEFLLFYSIHLSISWVWSCLILFYDVSFTIFSIFIILLLFL | 60300 |
| YNIRAKGFNIFNITISVALVFNQYVNPIALAALTWKYYVVYCVWLVCECIFLY | 60100 |
| QDEKHAEREGDTSSADGKEKSQDGDGGEKQKEGEGKPEKRNGVEAGAKNPAVK | 10600 |
| CLILVFADSWLFLTFTGVLLHGVGIELNKFTCSLGIFSCILLYTSSKVLIYFF | 42800 |
| YIKGVVLALWILDTFGMCLIFHILYWYLITNYGNPLSITEPIWSIILHIMVTA | 48500 |
| VLLCQMEDAVLSSSFAIKANTAMSQNTAEEFFNISEEEALNQLLENNNFDAFW | 140000 |
| LLVLLVFVADTLHMMGTTQFYWSMLVLCRRSDAAMCEAGLSWGSSISFPMNYV | 42600 |
| HAARALSLPSISPQFFVLLHKLSFPLLPFWLPMYFLLCITLPSSWLVLLYLFL | 37800 |
| MSTLHWNMIFLVFFFWVVDVLFAWIMEVGMMVGVHVAYAYGDCGGPVLFMVPF | 71700 |
| GSEDESEGSEDESSEDEEDEEKALDKKMEIQDQTNTNLVNLRKTIYLTIMSSI | 43400 |
| GGTASPPPPPDNRPPEERYAEQLRQLNDMGFFDFDRNVEALRRSGGSVQGAIE | 28300 |
| NAIISNLMLGMLLFCGSLYLLITFLPILSSDCPYSTPMSVPWWRILRALGAVG | 37900 |
| PYIVYPLKPCLSGPLCELYPSVMNLWAMCLHLILLCIQIPFLLSIPFWLLFPL | 86900 |
| SSDYSIAQFRFLLKLLLVHGRWNYVRICKYILGTFYKEFMFYLTQLIYQRNTM | 39600 |
| DLAPVQPVQKQARRRSGPACEGCKARKTKCDGKRPTCGSCVDKRHCVYADASV | 21900 |
| MVFDCEFQHIQFSGSLLCLPLWDFFLRCIVCGHRSIFYIFYIIFVILFLHFLT | 30500 |

| Sequence | transcriptional activation domain activity |
| --- | --- |
| SFLIGGGSAFWLITYGLFYWASRLSLDSLASVVLYLGYLFLLALFDFLITGTI | 36700 |
| LCKAIQFCVFLGFALAGYNFEPWHQLIVYETLCFVLFLSRVLLTIQYAVVLVY | 61400 |
| MGLGVLYHLSLLFPFLFFFLYLSSSFPSFLILFFFFFGYSPSAVWVFLFCFGQ | 58100 |
| MNCRIVWNRCCGGLVPRFLLFLWCFGTVGYYRYFFSMGLGILLLWYILVLTTV | 50600 |
| APFSKGPRMWNEVYITSLAHGCLVNRLFCSLAWCELYLIFGNIFRRLDLKLFV | 58100 |
| SVCNDGNAGDFLYDCFGEFNNQPFNWDVLSPRVAANPYYSFDDFGSSLFILFQ | 106000 |
| ANRIAIRLFHFLLECPDEMTRLVAIKKYIKNTYMIPTYLVTVNCILRLAGYWK | 55900 |
| AVVVTVWKLCDHPVMAWILGLIRCLTKKLKEVRQCKEELKQFFRDVVCKIEIA | 39000 |
| ALTLVDPQGVLKCRIVLFCVIRGSVMVLGWWNYKLMHRWLLPGIIQCLSNIPV | 64500 |
| FRPAPPPCSPAPPSPSSSPSSSSPPPPPPSRARRWSSAARARNAATTPCASSG | 37900 |
| VREWHVDLSFSSFGKTLLRELESLLERVRANWLEEVTVRTIALICSRLLASTI | 60800 |
| HHTHHSSSTDWSRAFRKWSVRLLLAIAFPTTYLLGAAMPPKIILMLYPRYSPP | 39100 |
| MLFLMCSLFFFVVFFLWSFFCGLLSLWCICYDISVGAWLTFGLLLVLWLLCIC | 23900 |
| MSFLGLSFFAYLLGVGWILLFCLSFGLPQPLSFITWDCLTRGGFFFLLYFFCF | 44500 |
| KKPPARLLAKKAPAAAAGGEEGSSKSAAKPAAPPVKKVVPAAAAAKPAKGGAP | 28400 |
| VILGYCSLFVWFAVCGFCFLCFCVFVFLCFLFFVFFWHSSLGYLAGLAIIITF | 18300 |
| AFVNFIYVEDLLNFARTKLGVKWYFSHNLCIYVITHLLHRNMFSSEKVLQMSY | 83400 |
| MTNRLHIVCHICVFYGYILMFQAITSYHYFILLCILILILHLLTFILVYLYKD | 38400 |
| MTLASLAARRSNCMKRRVGCVVVSQPDRRVISTGYNGTPRGIRNCGEGGCPRC | 39100 |
| HFLLLPSLFLFSSFLPFLTSLPPHSPFFFLSFLFFSPLFSLFFLFINSTHFLP | 41700 |
| MEQTNKEDSGSDTQACPICDAPAVNRCSRCASVYYCSQEHQKEVRYESPSNAL | 49900 |

| Sequence | transcriptional activation domain activity |
| --- | --- |
| VRVPDFHHADGRDHVRDGEDGHGDGHVRVHAHAQGGGQGRGLARDRVDAHARE | 13200 |
| LLILSLTVPFLHGLLRPHTHYVHLLVVVFLTFSPFFVILTISYEGLFYVIFCI | 57900 |
| MVMYHWGMRCVFLYTNYIIFGFGFVFSFLFSFFFFFFPFTCIFFFLFYLIFIF | 58900 |
| SLEAWVPSVKLMMHDRSGLSRDGRTAVYHLIALTLRYSEIYVEQILVLWKGLV | 44200 |
| MADPQEDNTAPGTKRRRLRGSCDKCKQRKIRCDSSEMPGNRCSNCIAFSSECT | 31600 |
| MAVETVGLGWRTLRSLIIEFILFYCLFTALGYNSLSLLNYRPWIFFSFLFCLF | 57500 |
| SPMGSGSDEEEEERRRKRRKEKKRSKKSKRERSGSLSGSGSEGGGGKRKRHQD | 36000 |
| KVNQRKENKNNKNDEDNDDDNDDEEGKEKDKEEEKKDKKKKNKKCKHKKNKNK | 21700 |
| MIPLLSFYYYFYISTCKTELLFSPFIFYFLLFLYIYIKIYTYFLHTPFLLVFE | 47700 |
| QKVGSDKTPGGGSSQYIWLIVYLSISLLSSVLVATTMLLIYTGSLRASVILHE | 53500 |
| KWHSTMQSAAARGTRVLHDKRRSRVKREGGEGGGGKEERRRQRRRTCATCTRL | 29700 |
| FGVKKVHHEIRSHVRLYYQSIGTSLLKGYERMDMVDIFKALRQCFLAIVLLFR | 53600 |
| DSFDAPIQTLGDDQRACLKPGLWFAYKVRFCVTLKQYKVLWMCLVLLRHLRIK | 48000 |
| MPVVKLMAEPFLFLFLFYLSVLALAFFYFFYFFYFFFLKILPGMMVFSSLGCF | 55500 |
| PVAPPAASQPHPTANTMQATHAPPSSGRRRGRPKGSKNKPKPEAPTGPEASAG | 6790 |
| NTDTYILFLFPFFWASNWFYTYQQNCYQLFYFNLRGRTFTNLWYWLAQIFGAL | 72900 |
| SHQVLSCLAIFVFPRLAFITLSDNLLILSLRSMMSDFVFLMLLGAWCFLGFLY | 55200 |
| LYVSLHAVVGNVAEFYFVRYGLALVCALCQTIMFQVTSVTLNGRIGLFFLIAT | 45400 |
| EKKRKRTEEEDAPKLKKKKTKSDLKRDSGGSSQEDSEAPAKKKKSSKSKKAKK | 35800 |
